According to patent US20170065725A1 (published 2017):
Where two headings read alike, the source gives them in different places.

How the values were obtained:
[1] = molecular target: T1, porcine TSH receptor (immobilized, TSH Receptor Autoantibody 2nd Generation ELISA kit, RSR Limited) (porcine, UniProt Q8SPP9 22-764, limits assumed); test: competition ELISA; inhibition of biotinylated rhTSH binding to immobilized porcine TSH receptor
T1 construct: Bought kit plates; the construct is not described
T1 sequence (Q8SPP9 22-764 limits assumed): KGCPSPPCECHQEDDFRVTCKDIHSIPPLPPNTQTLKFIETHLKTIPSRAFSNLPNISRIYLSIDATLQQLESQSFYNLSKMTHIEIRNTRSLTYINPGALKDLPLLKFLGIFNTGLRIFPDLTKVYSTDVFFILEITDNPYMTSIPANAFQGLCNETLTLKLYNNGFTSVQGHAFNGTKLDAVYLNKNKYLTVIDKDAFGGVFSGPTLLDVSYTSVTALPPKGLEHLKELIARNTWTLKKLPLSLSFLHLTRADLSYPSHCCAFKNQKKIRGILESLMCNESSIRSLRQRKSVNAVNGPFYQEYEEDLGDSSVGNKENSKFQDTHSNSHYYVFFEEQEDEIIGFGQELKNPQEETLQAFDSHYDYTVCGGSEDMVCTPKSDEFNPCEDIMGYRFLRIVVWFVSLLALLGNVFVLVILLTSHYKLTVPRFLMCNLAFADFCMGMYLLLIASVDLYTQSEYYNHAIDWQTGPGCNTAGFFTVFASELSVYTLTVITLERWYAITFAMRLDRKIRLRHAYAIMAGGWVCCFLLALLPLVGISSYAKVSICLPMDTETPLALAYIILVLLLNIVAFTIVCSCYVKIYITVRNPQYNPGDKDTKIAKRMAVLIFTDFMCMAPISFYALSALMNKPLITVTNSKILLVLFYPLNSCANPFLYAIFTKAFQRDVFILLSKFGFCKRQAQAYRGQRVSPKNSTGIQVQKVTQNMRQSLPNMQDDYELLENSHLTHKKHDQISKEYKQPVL
Protocol: (§1) Purified PEGylated conjugates were analyzed by in vitro porcine TSH receptor binding assay using the TSH Receptor Autoantibody 2nd Generation ELISA kit from RSR Limited (Kronus, Star, Id.). Instead of using the biotinylated human monoclonal autoantibody to the TSH receptor provided by the kit, we biotinylated Thyrogen® (rhTSH) to use for competitive inhibition of binding to TSH receptor. Binding of biotinylated rhTSH to immobilized porcine TSH receptor was inhibited by either rhTSH control or PEGylated rhTSH conjugates and IC₅₀ values were measured.
(§2) Thyrogen® was biotinylated with 1.7 to 1.8 biotins per protein using the ChromaLink™ Biotin Labeling Reagent according to the manufacturer's protocol (QED Bioscience Inc., San Diego, Calif.) and buffer exchanged into 50 mM sodium phosphate, 150 mM sodium chloride pH 7.0 with a Zeba™ Desalt Spin Column (Thermo Scientific, Rockford, Ill.). In vitro measurement of receptor binding was performed by competition of biotinylated Thyrogen® and PEG-rhTSH conjugate for binding to porcine TSH receptor immobilized onto 96-well plates supplied with the TSH Receptor Autoantibody 2nd Generation ELISA kit from RSR Limited (Kronus, Star, Id.). PEG-rhTSH conjugates were serially diluted 1:5 from 16 μM to 41 pM in assay buffer (100 mM HEPES pH 7.5, 20 mM EDTA, 1% BSA, 0.5% Triton X-100) and mixed 1:1 with biotinylated Thyrogen® diluted 1000-fold in assay buffer. The mixture was added to each receptor-coated well and incubated at 25° C. for 25 minutes. Unbound rhTSH was washed away and streptavidin peroxidase was added at 25° C. for 20 minutes according to the RSR Limited ELISA protocol to determine the amount of biotinylated Thyrogen® bound to the plate. The plate was then washed three times to remove excess unbound streptavidin peroxidase and then tetramethylbenzidine (TMB) was added to each well and incubated in the dark at 25° C. for 30 minutes. The reaction which was quenched with 0.5M sulfuric acid stop buffer and the absorbance of each well was read at 450 nm using a SpectraMax® 340pc plate reader (Molecular Devices, Sunnyvale, Calif.). The data was fit using a sigmoidal dose response equation with GraphPad Prism software to generate IC₅₀ values.

[2] = molecular target: T1, porcine TSH receptor (immobilized, TSH …); test: in vitro TSH receptor binding assay (competition ELISA)
[3] = molecular target: T1, porcine TSH receptor (immobilized, TSH …); test: competition ELISA; inhibition of biotinylated rhTSH binding to immobilized porcine TSH receptor; remark: listed apart in the source
Protocol: as §1, §2

IC50 [1]	fold change (IC50 against rhTSH) [1]	fold decrease of receptor binding affinity against rhTSH control [2]	IC50 [3]	fold change (IC50 against rhTSH) [3]	Binder
41.6 nM	1.5 fold				G22C rhTSH (TSH G22C (alpha)) (ligand, Alpha Cys22 may carry a cap after expression; whether the assayed sample was capped is not stated. N-glycans at alpha Asn52, Asn78 and beta Asn23., Cysteine mutant without PEG, produced in CHO cells; also called alphaG22C TSH) alpha: not shown beta: FCIPTEYTMHIERRECAYCLTINTTICAGYCMTRDINGKLFLPKYALSQDVCTYRDFIYRTVEIPGCPLHVAPYFSYPVALSCKCGKCNTDYSDCIHEAIKTNYCTKPQKSYLVGFSV
248 nM	8.9 fold				40 kD linear G22C (PEGylated Cys-mutant TSH) (ligand, Chain 1 (alpha) pos 22: Cys carrying a 40 kD linear cysteine-reactive PEG, written C. N-glycans at alpha Asn52, Asn78 and beta Asn23., also called 40 KD G22C) alpha: not shown beta: FCIPTEYTMHIERRECAYCLTINTTICAGYCMTRDINGKLFLPKYALSQDVCTYRDFIYRTVEIPGCPLHVAPYFSYPVALSCKCGKCNTDYSDCIHEAIKTNYCTKPQKSYLVGFSV
743 nM	26.5 fold				40 kD 4-arm PEG G22C (ligand, Chain 1 (alpha) pos 22: Cys carrying a 40 kD 4-arm (branched) cysteine-reactive PEG, written C. N-glycans at alpha Asn52, Asn78 and beta Asn23.) alpha: not shown beta: FCIPTEYTMHIERRECAYCLTINTTICAGYCMTRDINGKLFLPKYALSQDVCTYRDFIYRTVEIPGCPLHVAPYFSYPVALSCKCGKCNTDYSDCIHEAIKTNYCTKPQKSYLVGFSV
417 nM	14.9 fold				40 kD 2-arm PEG G22C (ligand, Chain 1 (alpha) pos 22: Cys carrying a 40 kD 2-arm (branched) cysteine-reactive PEG, written C. N-glycans at alpha Asn52, Asn78 and beta Asn23.) alpha: not shown beta: FCIPTEYTMHIERRECAYCLTINTTICAGYCMTRDINGKLFLPKYALSQDVCTYRDFIYRTVEIPGCPLHVAPYFSYPVALSCKCGKCNTDYSDCIHEAIKTNYCTKPQKSYLVGFSV
319 nM	11.4 fold	11.1 fold	397 nM	10.8 fold	N-terminal mono-PEGylated rhTSH with 40 kD PEG (ligand, One 40 kD aldehyde PEG on an N-terminal amine (alpha Ala1 or beta Phe1; which subunit is not stated). N-glycans at alpha Asn52, Asn78 and beta Asn23. None is carried by the letters., also called 40 kD N-terminal) alpha: not shown beta: FCIPTEYTMHIERRECAYCLTINTTICAGYCMTRDINGKLFLPKYALSQDVCTYRDFIYRTVEIPGCPLHVAPYFSYPVALSCKCGKCNTDYSDCIHEAIKTNYCTKPQKSYLVGFSV
28 nM	1 fold		36.7 nM	1 fold	Recombinant human TSH (rhTSH), THYROGEN Thyroid Stimulating Hormone (ligand, N-linked glycans at alpha Asn52 and Asn78 and beta Asn23; not carried by the letters., also called TSH control; control TSH; copies: 1 + 1) alpha: not shown beta: FCIPTEYTMHIERRECAYCLTINTTICAGYCMTRDINGKLFLPKYALSQDVCTYRDFIYRTVEIPGCPLHVAPYFSYPVALSCKCGKCNTDYSDCIHEAIKTNYCTKPQKSYLVGFSV
